Laboratory results published in publication doi:10.1101/2020.03.25.007906 (bioRxiv, 2020).

What was measured:
[1] = target: T1, purified recombinant drDnaA (Deinococcus radiodurans R1, UniProt Q9RYE7 1-466); assay: SPR
T1 sequence (looked up): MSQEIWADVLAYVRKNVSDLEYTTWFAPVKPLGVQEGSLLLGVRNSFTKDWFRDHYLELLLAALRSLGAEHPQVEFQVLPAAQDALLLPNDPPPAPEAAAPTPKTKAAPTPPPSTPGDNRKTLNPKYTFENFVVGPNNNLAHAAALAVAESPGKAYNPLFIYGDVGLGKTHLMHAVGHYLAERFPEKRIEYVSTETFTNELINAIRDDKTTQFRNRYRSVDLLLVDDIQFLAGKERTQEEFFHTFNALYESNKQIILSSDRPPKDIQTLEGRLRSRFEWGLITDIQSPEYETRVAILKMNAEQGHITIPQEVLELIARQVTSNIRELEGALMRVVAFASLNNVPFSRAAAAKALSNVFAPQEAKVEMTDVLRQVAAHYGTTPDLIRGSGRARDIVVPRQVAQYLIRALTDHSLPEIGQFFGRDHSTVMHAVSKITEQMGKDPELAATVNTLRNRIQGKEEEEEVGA

[2] = target: T2, purified recombinant drDnaB (Deinococcus radiodurans R1, UniProt Q9RWW6 1-448); assay: SPR
T2 sequence (looked up): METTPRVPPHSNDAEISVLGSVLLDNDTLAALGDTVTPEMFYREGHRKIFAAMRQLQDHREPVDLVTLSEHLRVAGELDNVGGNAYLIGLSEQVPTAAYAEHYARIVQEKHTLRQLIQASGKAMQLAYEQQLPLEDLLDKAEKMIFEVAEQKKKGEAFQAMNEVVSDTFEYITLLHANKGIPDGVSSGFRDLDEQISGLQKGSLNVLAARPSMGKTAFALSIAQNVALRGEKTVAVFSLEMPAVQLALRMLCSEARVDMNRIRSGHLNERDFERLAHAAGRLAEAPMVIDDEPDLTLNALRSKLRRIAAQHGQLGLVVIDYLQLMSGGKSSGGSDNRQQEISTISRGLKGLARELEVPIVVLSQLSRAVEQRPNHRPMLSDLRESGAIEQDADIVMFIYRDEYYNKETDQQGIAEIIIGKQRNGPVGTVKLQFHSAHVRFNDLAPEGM

B1: recombinant PprA (natural protein, Deinococcus radiodurans, UniProt O32504 1-300, looked up)
chain: MLPLAFLICSGHNKGSMARAKAKDQTDGIYAAFDTLMSTAGVDSQIAALAASEADAGTLDAALTQSLQEAQGRWGLGLHHLRHEARLTDDGDIEILTDGRPSARVSEGFGALAQAYAPMQALDERGLSQWAALGEGYRAPGDLPLAQLKVLIEHARDFETDWSAGRGETFQRVWRKGDTLFVEVARPASAEAALSDAAWDVIASIKDRAFQRELMRRSEKDGMLGALLGARHAGAKANLAQLPEAHFTVQAFVQTLSGAAARNAEEYRAALKTAAAALEEYQGVTTRQLSEVLRHGLRES
A Kd [1] of 541 nM and a Kd [2] of 971 nM were found for B1 in this work.
